From patent KR20200098338A (dated 2020) come the findings set out here.

The chains are these.
B1: 3F12 항체 (항-BAG2 단일클론성 항체) (antibody, V domains shown)
VH: QVQLQESGPDLVKPSQSLSLTCTVTGYSITSGYSWHWIRQFPGNKLEWMGYIYYRGSTNYNPSLKSRISITRDTSKNQFFLLLKSVTTEDTATYYCAREAYWGQGTLVTVSA
VL: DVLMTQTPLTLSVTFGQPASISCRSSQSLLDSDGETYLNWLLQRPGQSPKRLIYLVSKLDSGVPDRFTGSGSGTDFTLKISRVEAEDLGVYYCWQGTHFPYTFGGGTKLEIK
notes: Mouse hybridoma monoclonal antibody
B2: 2A11 항체 (항-BAG2 단일클론성 항체) (antibody, V domains shown)
VH: QVQLQQPGAELVRPGASVTLSCKASGYTFTDYEMHWVKQTPVHGLEWIGIIDPETGGTAYNQKFKGKATLTADKSSSTAYMELRSLTSEDSAVYYCTRGKFYYSGRDYAMDYWGQGTSVTVSS
VL: DVLMTQTPLSLPVSLGDQASISCRSSQSIVHSNGNTYLEWYLQKPGQSPKLLIYKVSNRFSGVPDRFSGSGSGTDFTLKISRVEAEDLGVYFCFQGSQVPPTFGGGTKLEIK
notes: as for B1
B3: 3G8 항체 (항-BAG2 단일클론성 항체) (antibody, V domains shown)
VH: QIQLVQSGPELKKPGETVKISCKASGYSFTKYGMNWVKQAPGKDIKWMGWINTNTGEATYGEEVKGRFAFSLETSASTAYLQINNLKNEDTATYFCARLGLRYLDYWGQGTTLTVSS
VL: DIVMTQSPASLVVSLGQRATISCRASKSVSTSDYSYMHWYQQKPGQPPKVLIYLASNLESGVPARFSGSGSGTDFTLNIHPVEEEDAATYYCQHNRELPPTFGAGTKLELK
notes: as for B1
B4: 4C2 항체 (항-BAG2 단일클론성 항체) (antibody, V domains shown)
VH: B2 VH with G57A
VL: B2 VL with I53F
notes: as for B1
B5: 8C4 항체 (항-BAG2 단일클론성 항체) (antibody, V domains shown)
VH: B2 VH with G56A
VL: B2 VL with I53F
notes: as for B1

Positions count from the first letter of the chain named.

T1 sequence (O95816 2-211 limits assumed): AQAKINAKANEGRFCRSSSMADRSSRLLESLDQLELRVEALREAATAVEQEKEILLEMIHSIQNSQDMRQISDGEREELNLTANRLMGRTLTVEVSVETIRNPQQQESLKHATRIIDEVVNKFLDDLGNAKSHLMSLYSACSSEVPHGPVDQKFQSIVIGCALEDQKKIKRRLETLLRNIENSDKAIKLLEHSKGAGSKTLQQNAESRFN

The first experiment has as its target T1, 인간 BAG2 단백질 (human BAG2 protein) (human, UniProt O95816 2-211).
T1 construct: also called BAG2 폴리펩티드
As to the kind of experiment: immunoblot selection of hybridoma clones.
In the case of B1, the binding result is “binds”.

Regarding B2, the binding result is listed as “binds”.

The target of the next experiment is T1, 인간 BAG2 단백질 (human BAG2 protein). As to the kind of experiment: immunoblot of MDA-MB-231 cell lysate, antibody from hybridoma culture at 1/2000. On the technique in general: In western blotting, separated proteins are transferred to a membrane and probed.
As for B3, the binding result is on record as “binds”.

B4: the binding result is recorded as “binds”.

For the molecule B5, the binding result is on record as “binds”.

In another experiment the target is T2, GST-Bag Full (GST-융합 전장 BAG2 폴리펩티드) (human, UniProt O95816 1-211).
T2 construct: Expressed in HEK293T cells, detected at about 50 kDa in lysate by immunoblot; also called GST-Bag Full 벡터 발현 산물; not shown: GST tag, about 26 kDa, from pcDNA3.1+/GST vector (NovoPro Bioscience)
T2 sequence (O95816 whole entry): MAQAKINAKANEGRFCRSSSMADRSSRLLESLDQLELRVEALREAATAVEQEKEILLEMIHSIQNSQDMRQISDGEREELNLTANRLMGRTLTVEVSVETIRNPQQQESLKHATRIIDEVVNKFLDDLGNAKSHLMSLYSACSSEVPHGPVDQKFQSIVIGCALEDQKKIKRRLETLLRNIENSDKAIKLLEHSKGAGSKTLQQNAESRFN
The experiment can be described thus: immunoblot of lysate of HEK293T cells transfected with GST-Bag Full vector, signal at about 50 kDa.
On to B1, for which the binding result is given as “binds”.

For B3, the binding result was “binds”.

Regarding B2, the binding result is listed as “binds”.

For B4, the binding result was “binds”.

With B5, the binding result is listed as “binds”.
